Paper PMC4878814, “Mechanism of Human Nucleocytoplasmic Hexosaminidase D” (Biochemistry, 2016)

Assays:
murine HexD = molecular target: T1, murine HexD (Mus musculus, UniProt Q3U4H6); assay: enzyme inhibition, preliminary studies (data not shown); format: biochemical
T1 sequence (Q3U4H6 1-486): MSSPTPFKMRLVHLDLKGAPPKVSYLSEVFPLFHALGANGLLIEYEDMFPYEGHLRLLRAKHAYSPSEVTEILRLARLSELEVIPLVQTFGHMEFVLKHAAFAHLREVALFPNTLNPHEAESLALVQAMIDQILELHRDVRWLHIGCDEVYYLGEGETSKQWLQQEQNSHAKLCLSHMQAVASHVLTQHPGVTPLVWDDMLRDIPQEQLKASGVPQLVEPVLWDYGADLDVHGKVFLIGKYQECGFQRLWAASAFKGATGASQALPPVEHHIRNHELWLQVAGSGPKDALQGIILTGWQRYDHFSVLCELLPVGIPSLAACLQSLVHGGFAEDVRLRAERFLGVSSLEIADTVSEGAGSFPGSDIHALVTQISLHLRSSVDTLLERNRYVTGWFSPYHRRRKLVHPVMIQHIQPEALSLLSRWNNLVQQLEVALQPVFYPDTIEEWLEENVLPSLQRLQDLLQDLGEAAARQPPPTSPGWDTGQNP

hexosaminidase D (HexD) = molecular target: T2, hexosaminidase D (HexD) (Homo sapiens, UniProt Q8WVB3); assay: inhibition of purified enzyme hydrolysis of PNP-GalNAc, absorbance, Lineweaver-Burk and nonlinear regression; format: biochemical
T2 construct: human HexD in pET30a vector, expressed in E. coli BL21(DE3)
T2 sequence (Q8WVB3 1-486): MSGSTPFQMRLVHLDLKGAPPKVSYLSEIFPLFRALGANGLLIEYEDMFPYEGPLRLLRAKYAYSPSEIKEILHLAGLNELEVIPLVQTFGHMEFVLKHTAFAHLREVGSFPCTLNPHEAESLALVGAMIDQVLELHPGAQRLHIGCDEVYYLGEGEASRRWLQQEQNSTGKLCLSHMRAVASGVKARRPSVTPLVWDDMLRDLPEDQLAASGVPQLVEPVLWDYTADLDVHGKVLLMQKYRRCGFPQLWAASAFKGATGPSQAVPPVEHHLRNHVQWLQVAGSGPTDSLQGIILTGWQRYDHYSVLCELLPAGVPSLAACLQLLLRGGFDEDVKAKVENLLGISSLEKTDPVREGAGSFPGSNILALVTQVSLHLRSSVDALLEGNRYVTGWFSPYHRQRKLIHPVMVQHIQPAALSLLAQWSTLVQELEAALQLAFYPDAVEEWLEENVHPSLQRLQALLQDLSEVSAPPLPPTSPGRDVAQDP

[1] = substrate: CC(=O)N[C@H]1[C@H](Oc2ccc([N+](=O)[O-])cc2)O[C@H](CO)[C@H](O)[C@@H]1O; assay: Michaelis-Menten kinetics of hydrolysis by purified enzyme (KM); hydrolysis also followed by 1H NMR; format: biochemical, Homo sapiens; conditions: active site; Asp148 polarizing residue, Glu149 general acid/base
purified protein [2] = substrate: O=C(N[C@H]1[C@H](Oc2ccc([N+](=O)[O-])cc2)O[C@H](CO)[C@H](O)[C@@H]1O)C(F)F; assay: purified protein
purified protein [3] = substrate: CC(=O)N[C@H]1[C@H](Oc2ccc([N+](=O)[O-])c(F)c2)O[C@H](CO)[C@H](O)[C@@H]1O; assay: purified protein
purified protein [4] = substrate: CC(=O)N[C@H]1[C@H](Oc2ccc([N+](=O)[O-])cc2)O[C@H](CO)[C@@H](O)[C@@H]1O; assay: purified protein
purified protein [5] = substrate: O=C(CF)N[C@H]1[C@H](Oc2ccc([N+](=O)[O-])cc2)O[C@H](CO)[C@H](O)[C@@H]1O; assay: purified protein
purified protein [6] = substrate: O=C(N[C@H]1[C@H](Oc2ccc([N+](=O)[O-])cc2)O[C@H](CO)[C@H](O)[C@@H]1O)C(F)(F)F; assay: purified protein
purified protein [7] = substrate: CC(=O)N[C@H]1[C@H](Oc2ccc([N+](=O)[O-])c(F)c2)O[C@H](CO)[C@@H](O)[C@@H]1O; assay: purified protein

CC1=N[C@@H]2[C@@H](O)[C@@H](O)[C@@H](CO)O[C@@H]2S1 [compound 4, Gal-NAG-thiazoline]
Ki (murine HexD): 520 nM | Ki (hexosaminidase D (HexD)): 420 nM

B1: hexosaminidase D (HexD) (Homo sapiens) (protein)
chain: T2 sequence (Q8WVB3 1-486)
notes: human HexD in pET30a vector, expressed in E. coli BL21(DE3)
Km [1]: 72.1 ± 4.8 µM | kcat [1]: 1.32 ± 0.02 s⁻¹ | kcat/Km [1]: 18200 ± 1250 M⁻¹ s⁻¹ | Km (purified protein [2]): 102 ± 16 µM | kcat (purified protein [2]): 0.27 ± 0.0108 s⁻¹ | kcat/Km (purified protein [2]): 2650 ± 417 M⁻¹ s⁻¹ | Km (purified protein [3]): 172 ± 19 µM | kcat (purified protein [3]): 2.03 ± 0.065 s⁻¹ | kcat/Km (purified protein [3]): 11800 ± 1350 M⁻¹ s⁻¹ | Km (purified protein [4]): 607 ± 53 µM | kcat (purified protein [4]): 0.507 ± 0.0148 s⁻¹ | kcat/Km (purified protein [4]): 835 ± 76.7 M⁻¹ s⁻¹ | Km (purified protein [5]): 533 ± 17 µM | kcat (purified protein [5]): 2.6 ± 0.0317 s⁻¹ | kcat/Km (purified protein [5]): 4980 ± 183 M⁻¹ s⁻¹ | Km (purified protein [6]): 103 ± 27 µM | kcat (purified protein [6]): 0.042 ± 0.00283 s⁻¹ | kcat/Km (purified protein [6]): 408 ± 108 M⁻¹ s⁻¹ | Km (purified protein [7]): 852 ± 54 µM | kcat (purified protein [7]): 1.54 ± 0.045 s⁻¹ | kcat/Km (purified protein [7]): 1820 ± 127 M⁻¹ s⁻¹
